We go through 6 molecules from EP4659811A1.

Sequences and labels used below:
B1: antibody G7P3 (antibody, V domains shown)
VH: EVQLVESGGGLVQPGGSLRLSCAASGFSFGSYSMNWVRQAPGKGLEWVSHISSGSSSIYYADSVKGRFTISRDSVKNSLYLQMNNLRAEDTAVYYCARGWTGYDAFDIWGQGTMVTVSS
VL: DIQMTQSPSSLSASVGDRVTITCRASQVISNYLAWYQEKPGKVPKLLIYAASTLQSGVPSRFSGSGTGTDFTLTIRSLQPEDVATYYCQKYNNAPLTFGGGTKVEIK
B2: antibody E8P5 (antibody, V domains shown)
VH: EVQLVESGGGLVHPGGSLRLSCAASGFRFGTYSMNWVRQAPGKGLEWVSHISSGSSSIYYADSVKGRFTISRDSVKNSLYLQMNNLRAEDTAVYFCARGWTGYDAFDIWGQGTMVTVSS
VL: DIQMTQSPSSLSASVGDRVTITCRASQVISNYLAWYQEKPGEVPKLLIYAASTLQSGVPSRFSGSGTGTDFTLTISSLQPEDVATYYCQKYNNAPLTFGGGTKVEIK
B3: antibody E10P5 (antibody, V domains shown)
VH: QVQLQESGPGLVKPSQTLSLTCSVSGGSISSGNYYWSWIRQPAGKGLEWIGRIYTSGNTNYNPSLKSRVTMSVDTSKNQFSLKLSSVTATDTAVYYCARVRRDGYNAFDYWGQGTLVTVSS
VL: SYELTQPPSVSVSPGQTASIDCSGHNLGDKFTCWYQQKPGQSPVLVIYQDSKRPSGIPERFSGSNSGNTATLTISGTQAMDEADYYCQAWDSDTLYVFGTGTTVTVL
B4: antibody B7P3 (antibody, V domains shown)
VH: EVQLVESGGGVVQPGRSLRLSCAASGFTFSNFGMHWVRQPPGKGLEWVAVISYDGSDKFYADSVKGRFTISRDNFKNTLYVQMNSLRAEDTAVYYCAKDRVRTKYYYDHSGPFDYWGRGTLVTVSS
VL: SYVLTQPPSVSVAPGQTARIACGGNNIGSKSVHWYQQRPGQAPVLVVYDDDDRPSGIPERFSGSNSGNTATLTISRVEAGDEADYFCQVWMTNSDRPVFGGGTKLTVL
B5: antibody C4P7 (antibody, V domains shown)
VH: EVQLLESGGGLVQPGGSLRLSCAASGFTFSSYAMSWVRQAPGKGLEWVSSLTGSGGSTYYRDSVKGRFTIFRDNSKKTLYMQMNSLRAEDTAVYYCAKEGAYSYDFWYFDLWGRGTLVTVSS
VL: EIVLTQSPGTLSLSPGERATLSCRASQTVSGNYLAWYQQKPGQSPSLLIYGASSRATGIPDRFTGSGSGTDFTLTISRLEPADFAVYYCQQYGRPLTFGGGTKVEIK
B6: antibody C10P8 (antibody, V domains shown)
VH: QVQLQESGPGLVKPSQTLSLTCTVSGGSISSGRYYWSWIRQPAGKGLEWIGRVYFSGSTNYNPSLKNRVTLSVDTSKNQFSLKLSSVIAADTAVYYCARAVRDYGDSYSFDYWGQGTLVTVSS
VL: QSALTQPASVSGSPGQSITISCTGSSSDIGGYNYVSWYQVHPGKAPHLKIYDVVNRPSGVSNRFPGSKSGNTASLTISGLLADDEAYYYCCSYSIRGTPVFGGGTKLTVL

Broadly, the EC50 is the concentration giving half of the maximal effect.

The target in one assay is VP1 pentamer of BKV genotype II (recombinant) (BK virus genotype II), P14996. The experiment in a line: ELISA, coated VP1 pentamer. As to conditions: remark: other sources report otherwise.
On to B1, for which the 50% effective concentration (EC50) worked out at 0.04 µg/mL.
With B2, the concentration for a half-maximal effect (EC50) came out at 0.08 µg/mL.
The same measure, in the same setting: in the case of B3 it was 0.065 µg/mL; in that of B4, 5.5 µg/mL.
For B5, the EC50 is 5 µg/mL.

For the next assay, the target named is VP1 pentamer of BKV genotype IV (recombinant) (BK virus genotype IV), P14996. The assay is described as follows: ELISA, coated VP1 pentamer. As to conditions: remark: other sources report otherwise.
On to B6, for which the EC50 came out at 10 µg/mL.
